# Laboratory results: the supplement of paper PMC12042874
# ± gives the uncertainty stated by the source.
# Assay: amyloid nucleation score (Sup35N fusion, yeast selection) (log enrichment); library NNK2; higher = more nucleation; inactive = no reads after selection
# How it was run: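 The nucleation score is the DiMSum log enrichment of output over input reads, centred on the mode score of non-aggregating sequences. Only sequences with 100 or more input reads were scored, using Illumina sequencing of input and output plasmid inserts. Psi-negative yeast expressing Sup35N fused to peptides of 20 random codons were induced 24 hours with 100 μM copper sulfate and grown 7 days at 30°C on medium lacking adenine and uracil.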
row,Substance,amyloid nucleation score
1,TMCWPMILK,-0.072 ± 0.27
2,TMFGPH,0.775 ± 0.74
3,TMFTFIAANSRWLNAKIPWY,0.157 ± 0.25
4,TMGNHFVFVS,inactive
5,TMSGCSLLCWEYNASQDLSN,-0.071 ± 0.62
6,TNGCALRSLNWLIVS,-0.44 ± 0.31
7,TNGRCVELVMMYKYSLFVGD,1.05 ± 0.61
8,TNMIMLFIRMGLRHGDKWAW,2.54 ± 0.19
9,TNMPRWECSHGGRECGKGPA,1.19 ± 0.18
10,TNRGCSMKRRKSINPRILGM,inactive
11,TNRRILSFGVNL,-0.427 ± 0.78
12,TNVLYMLWTFKVDERY,5.964 ± 0.049
13,TPNIGSSRVVMLSLQLLN,6.955 ± 0.054
14,TQFFFDFFE,0.432 ± 0.4
15,TQWSFGGYQRVGGLVVHAKR,3.03 ± 0.17
16,TQYFYIMLQ,5.16 ± 0.071
17,TRAHSED,0.49 ± 0.32
18,TRFTYCFVVRNLVTRNRPIS,-0.646 ± 0.22
19,TRMCGMGTQGGLSRF,0.257 ± 0.65
20,TRPVNLDLIFISSG,2.92 ± 0.098
21,TRTGCDMGRRLVCS,0.171 ± 0.35
22,TRWLGGISMGNSVFVLIRTL,0.416 ± 0.51
23,TSARRQLDDQRAWPEMAN,0.239 ± 0.62
24,TSCGCTW,0.092 ± 1.1
25,TSDITAVFNSFLKFR,-0.744 ± 0.74

row,Substance,amyloid nucleation score
1,TSGMYMCFLMLLVFCQLLNG,-1.21 ± 0.44
2,TSGPLFAPPC,0.402 ± 0.66
3,TSGRLR,1.67 ± 0.38
4,TSGVTWQLACSVK,4.2 ± 0.095
5,TSHVGL,-1.39 ± 0.49
6,TSKFSLRVFDLFSIYGYGHT,-0.125 ± 0.45
7,TSLKYSVENTVASPVDRTWL,-0.055 ± 1.1
8,TSPNFLSRLQVRYYRIRVSL,-0.026 ± 0.35
9,TSRDFYRNAGIARFAYYNSP,-1.15 ± 0.23
10,TSRDSRAL,-0.742 ± 1.1
11,TSSQTHSR,-0.03 ± 0.63
12,TSSTSRVDRACPGDSWPDID,-0.068 ± 0.42
13,TSVLA,-1 ± 1.1
14,TSVVNLNRMAFKTKFLQNTI,-1.1 ± 1.1
15,TSYTLDYCGISMLKYFNSVD,7.188 ± 0.062
16,TTFTIWAYMVAHQYLEIGCI,inactive
17,TTGRKFMMIVTGGCGESGRF,-0.77 ± 0.42
18,TTIFGNSATLDGIPHIIKRP,-0.268 ± 0.79
19,TTLITVSVT,inactive
20,TTSRLRWKRSHHKW,1.4 ± 0.29
21,TTVERWVVFRKVQMRYRIRL,5.396 ± 0.049
22,TVATRHYNLNGQSWKKWAQ,0.059 ± 0.23
23,TVGVCGTLPGSASRHVYFRE,0.286 ± 0.24
24,TVHDYFDVQECVIDQCKGLP,0.654 ± 0.57
25,TVLVSRFDIIRHRCPTELKR,0.153 ± 0.8

row,Substance,amyloid nucleation score
1,TVNLGSYSEMRFLLLQEQAS,-0.747 ± 0.63
2,TVREKDYIEDFGVIWRKGIY,0.791 ± 0.81
3,TVRVGAIVNSTHLVGTNSAF,-0.314 ± 0.34
4,TVVVWA,0.19 ± 0.31
5,TVYGHRVGGRSFVL,0.295 ± 0.28
6,TVYYNQLSD,-0.982 ± 0.76
7,TWHKFVSCDCGLH,0.677 ± 0.47
8,TWNLMNKVYIVPGLDPDTRS,7.225 ± 0.055
9,TWQEAHNSQLGGFSIPEKN,0.155 ± 1.1
10,TYADW,0.902 ± 0.3
11,TYCHYVADFLPLFRFRISGG,3.1 ± 0.065
12,TYFAEIMNTPLRPSARHEAR,1.72 ± 0.33
13,TYGCLFDSSIMSFQLSLDNF,-0.28 ± 0.49
14,TYIRSVYDAFAC,inactive
15,TYKFLSVFIDEFGQDFIMIW,-1.11 ± 0.43
16,TYLGNLYIMRFRAVLREPLV,0.077 ± 0.8
17,TYMCQYDSLLTKTMINNRRG,-0.611 ± 0.61
18,TYMDNFFVSCGMLKQVYASV,-0.223 ± 0.16
19,TYRIGYMNQCTSR,-0.215 ± 0.35
20,TYYKRN,-0.4 ± 0.34
21,VACVAHNTHYELTQQSYIYY,5.609 ± 0.046
22,VAIGLLVEGGFFIHRNICLW,-1.36 ± 0.62
23,VAILIMHCGAGSCRQMLMDS,0.305 ± 0.45
24,VALFS,-0.029 ± 0.8
25,VALRFTIMDCRIYLYSLNVF,0.125 ± 0.79

row,Substance,amyloid nucleation score
1,VAPTETRVDPIPSVGPVPGA,1.66 ± 0.34
2,VARFILHCY,-0.492 ± 0.28
3,VASYAIGSFYADVACVEPRY,0.835 ± 0.43
4,VAVFLNNA,inactive
5,VCHHSSI,inactive
6,VCIMSRYKLQLLKNSNGITH,2.53 ± 0.16
7,VCIRVRRDRKVMWDWSV,1.5 ± 0.24
8,VCRPRTTNIGAWRRFRFLFW,-0.601 ± 0.41
9,VCVFMDFHLYMMSARQSTKD,7.894 ± 0.042
10,VCYKIVKTSYNSFWDF,4.39 ± 0.1
11,VCYMGTRCGWNSRARVFWGS,2.69 ± 0.11
12,VCYMLRNFCDVQHKK,0.1 ± 0.63
13,VDCTEV,1.26 ± 0.26
14,VDFCVDVLFC,-1.06 ± 1.1
15,VDGVSLSGEFFNTIVNNFCI,6.08 ± 0.062
16,VDLSLTHYCARSNYLGGPSF,3.17 ± 0.076
17,VDNIVHMWDRNWSPGRYMDR,-0.679 ± 0.44
18,VDNNVGSWPLWP,-0.08 ± 1
19,VDNSLVNMLTAMGWSGFMHT,0.255 ± 0.49
20,VDPHFFIRLFLEYHNVMSWY,inactive
21,VDRESRFWWEGVQGFLDYWV,-0.614 ± 0.79
22,VDRFPVLVPKGWHMRRWCIR,0.669 ± 0.39
23,VDSTFSHSSSFWELYRPTHL,-1.41 ± 1.1
24,VDSYHGYTDRNALSFLCSLV,0.342 ± 0.23
25,VDTGEVNTF,1.76 ± 0.086

row,Substance,amyloid nucleation score
1,VDTRRMARKS,1.28 ± 0.27
2,VDTRS,0.382 ± 0.8
3,VEAIWHWVCYWSGMWSLGPG,3.69 ± 0.057
4,VEMLFLSFMRPVLLGTMVAV,0.007 ± 1.1
5,VESLRLRRSMVRNLILSSSC,-0.125 ± 0.63
6,VEVGLIVGSCSILI,-0.525 ± 0.64
7,VFCSSRFCIEECGC,-0.453 ± 0.64
8,VFFFKRLYTKVCF,inactive
9,VFGVLPIIGYPVRVLCVRFI,-0.43 ± 1.1
10,VFGWS,0.745 ± 0.22
11,VFIRAGIVFQFWCNG,7.22 ± 0.043
12,VFKRNQ,0.769 ± 0.41
13,VFLVHPTFSFKNRVCLNFVW,-0.081 ± 1.1
14,VFMFMTQVSRKSYALPRTAA,3.02 ± 0.12
15,VFNSTFANLW,2.6 ± 0.092
16,VFRVCEMDSSLFHYGLALDR,0.521 ± 0.3
17,VFSGTSMRGTEEIKMSWCEK,7.686 ± 0.044
18,VFSTTSLNV,-0.647 ± 0.34
19,VFSYYMSRFLGATCMYKAAG,5.1 ± 0.072
20,VFTSGSRCHPWLE,1.45 ± 0.27
21,VFTVLYALSCLSFIFVTV,4.04 ± 0.047
22,VFWGILMRGVRRTFSDCAGT,-1.47 ± 0.75
23,VFWITAQMYY,2.18 ± 0.076
24,VFYNIL,inactive
25,VFYVTYTS,5.76 ± 0.074

row,Substance,amyloid nucleation score
1,VGGQRHWYLYHDSLHFPQLE,0.396 ± 0.62
2,VGGVIYAYGFVFF,7.381 ± 0.029
3,VGKWVRGQTSLLLVAWSAIY,0.28 ± 0.61
4,VGLNYNAMAHTSRGSF,0.236 ± 0.38
5,VGPPEIWVEFFAV,-0.813 ± 1.1
6,VGRNYLWYRTMPDIYCQVCG,1.62 ± 0.077
7,VGTILAPGGLWGMEVCWQTK,3.06 ± 0.12
8,VGTPEHKLFYGLCVALGQFQ,inactive
9,VGVWATGRGCSISEYNGKNR,1.09 ± 0.12
10,VHFMIMQNSNCYCVKHIDFM,9.425 ± 0.04
11,VHLLGDFGLASQRRNECKLL,0.477 ± 0.28
12,VHLTAVWCLDRRRVRKIFIV,-0.802 ± 0.76
13,VICLCVLFRGSCRIKILDIV,-1.37 ± 1.1
14,VICNLDCLEVEGGILDQ,-1.04 ± 1.1
15,VIDVKFVGYILQVYVGVSFG,0.026 ± 1.1
16,VIEMRHDRFFTVYSVEITAG,0.623 ± 0.52
17,VIFIINELYGCIASNERVCA,6.281 ± 0.049
18,VIFTGKDLLVSLQTKCLAVW,0.942 ± 0.81
19,VIGTTGMYLCVVLETIHNWC,1.07 ± 0.26
20,VIIINIVFKSGMGQLLGHRR,6.53 ± 0.074
21,VIKTG,inactive
22,VIQIVNFSDNIMTCLHNHLQ,5.64 ± 0.086
23,VIVCCGSCLHRE,9.721 ± 0.05
24,VIWHWVAGH,5.71 ± 0.087
25,VIYLIGSHYTLVSNRLYEIG,8.186 ± 0.08

row,Substance,amyloid nucleation score
1,VIYLVLGKTRLNIELSVLST,1.16 ± 0.45
2,VIYMNAGLYLRLKRRFDYVV,0.72 ± 0.58
3,VKGGSRS,-0.186 ± 0.49
4,VKGISWGLRFS,inactive
5,VKGKE,2.31 ± 0.14
6,VKIMMELPLKIDGFLSHVRR,0.088 ± 0.24
7,VKLTLRVLLMSRTETHTVCR,0.494 ± 0.44
8,VKNFTPFRHILVITYNITFN,1.9 ± 0.14
9,VKPVSVFL,-0.11 ± 0.63
10,VKQWT,1.74 ± 0.24
11,VKSRRLTYNS,0.192 ± 0.79
12,VKSTYAYPPNVVDPHIGWGH,0.99 ± 0.24
13,VLACTEGNVLFEDDLRTKGL,1.56 ± 0.35
14,VLAKISTTE,0.705 ± 0.15
15,VLASWSDFKSRGRGNSSVSG,1.24 ± 0.33
16,VLDSINVSVCSWRVSCVTWL,7.709 ± 0.033
17,VLEFFLKSSF,3.1 ± 0.14
18,VLEGIYLLMKVCLIYPRSYD,-1.8 ± 1.1
19,VLIFMIKVWARITLMGYSRL,-0.666 ± 0.3
20,VLKCGHKYLVIDSWKL,1.78 ± 0.092
21,VLKPYM,-1.3 ± 0.54
22,VLLLAQHVLSGSNFTMG,3.44 ± 0.045
23,VLLRDNGLELFAP,0.779 ± 0.3
24,VLLRVRRCYSVPTFRVWSAT,1.39 ± 0.18
25,VLLTNQRMVFCMGRFAPRVG,-0.556 ± 0.32
